Data from patent publication US20230227838A1, “ENHANCED CELL SURVIVAL AGAINST BIOTIC AND ABIOTIC STRESSES THROUGH SALICYLICK ACID-INDUCED NPR1 CONDENSATES” (priority 2020, published 2023).

B1: AtHSBP, HSBP, heat shock factor binding protein (protein, UniProt Q8GW48 1-86, looked up)
Heat shock factor-binding protein: MDGHDSEDTKQSTADMTAFVQNLLQQMQTRFQTMSDSIITKIDDMGGRINELEQSINDLRAEMGVEGTPPPASKSGDEPKTPASSS
B2: LURP1, Protein of unknown function (DUF567) (protein, UniProt Q9ZQR8 1-207, looked up)
Protein LURP1: MQQPCVIVGSKYCSPNPVGLAIVRKVMKITDGNFVITSADGKLLFKVKDPLFSLHGKRILLDCSGAKVLTLRGKMMTMHDRWQVFRGGSTEEGALLYTVKRSSMIQLAPKLEVFLANNVEEKICDFKVKGAWLDDSCVVYAGDSDTIIAHMCGKQTMRGFFFGKDHFSVTVDKNVDYAFIASLIVILVEIEKAGFITKMTTQMIIGF
B3: ATCHR12, Homeotic gene regulator (protein, UniProt F4J9M5 1-1102, looked up)
Probable ATP-dependent DNA helicase CHR12: MVAQQLQERCGGTSQEDPVETTKSLICALNYISRDLPLPPHLFTAVSSIYHGASSSSLSDSDVSPPLPTSPPANKAPYGADLMGEFEDALLKQRPDCESGSRLIQLLDNRNKSHIQRRLSELEELPSTRGEDLQAKCLLELYGLKLRELQGKVRTAVSSEFWLRLNCADVSSQVFDWGMMRLPRPFYGVGDPFAMEADDQFRKKRDAERLSRLEEEEKNLIETAKRKFFAEVLNAVREFQLQIQATQKRRRQRNDGVQAWHGRQRQRATRAEKLRLMALKSDDQEAYMKLVKESKNERLTTLLEETNKLLANLGAAVQRQKDAKLPEGIDLLKDSESDLSELDAPRSEPLQDLLPDQDIDITESDNNDDSNDLLEGQRQYNSAIHSIQEKVTEQPSLLEGGELRSYQLEGLQWMVSLFNNNLNGILADEMGLGKTIQTISLIAYLLENKGVPGPYLIVAPKAVLPNWVNEFATWVPSIAAFLYDGRLEERKAIREKIAGEGKFNVLITHYDLIMRDKAFLKKIEWYYMIVDEGHRLKNHESALAKTLLTGYRIKRRLLLTGTPIQNSLQELWSLLNFLLPHIFNSVQNFEEWFNAPFADRGNVSLTDEEELLIIHRLHHVIRPFILRRKKDEVEKFLPGKTQVILKCDMSAWQKVYYKQVTDMGRVGLQTGSGKSKSLQNLTMQLRKCCNHPYLFVGGDYNMWKKPEIVRASGKFELLDRLLPKLRKAGHRILLFSQMTRLIDVLEIYLTLNDYKYLRLDGTTKTDQRGLLLKQFNEPDSPYFMFLLSTRAGGLGLNLQTADTVIIFDSDWNPQMDQQAEDRAHRIGQKKEVRVFVLVSVGSVEEVILERAKQKMGIDAKVIQAGLFNTTSTAQDRREMLEEIMRKGTSSLGTDVPSEREINRLAARSEDEFWMFERMDEERRRKENYRARLMQEQEVPEWAYTTQTQEEKLNNGKFHFGSVTGKRKRKEIVYSDTLSELQWLKAVESGEDLSKLSMRYNRREENASNTKTSTSKKVIESIQTVSDGTSEEDEEEQEEERAKEMSGKQRVDKSEEEEEEGEEENDGKAIFKWNTHKKKRSRYSFTCSSSDSRAQSSNGSRRK
B4: BSL2, BRI1 suppressor 1 (BSU1)-like 2 (protein, UniProt Q9SJF0 1-1018, looked up)
Serine/threonine-protein phosphatase BSL2: MDEDSSMVADNDQDREFQSLDGGQSPSPMERETPQQMNDQSPPPEGGSVPTPPPSDPNPATSQQQAAAVVGQEQQPALVVGPRCAPTYSVVDAMMDKKEDGPGPRCGHTLTAVPAVGDEGTPGYIGPRLVLFGGATALEGNSGGTGTPTSAGSAGIRLAGATADVHCYDVLSNKWTRLTPFGEPPTPRAAHVATAVGTMVVIQGGIGPAGLSAEDLHVLDLTQQRPRWHRVVVQGPGPGPRYGHVMALVGQRYLMAIGGNDGKRPLADVWALDTAAKPYEWRKLEPEGEGPPPCMYATASARSDGLLLLCGGRDANSVPLASAYGLAKHRDGRWEWAIAPGVSPSSRYQHAAVFVNARLHVSGGALGGGRMVEDSSSVAVLDTAAGVWCDTKSVVTSPRTGRYSADAAGGDASVELTRRCRHAAAAVGDLIFIYGGLRGGVLLDDLLVAEDLAAAETTYAASHAAAAAATNSPPGRLPGRYGFSDERNRELSESAADGAVVLGSPVAPPVNGDMHTDISPENALLPGTRRTNKGVEYLVEASAAEAEAISATLAAAKARQVNGEVELPDRDCGAEATPSGKPTFSLIKPDSMGSMSVTPAGIRLHHRAVVVAAETGGALGGMVRQLSIDQFENEGRRVSYGTPESATAARKLLDRQMSINSVPKKVIAHLLKPRGWKPPVRRQFFLDCNEIADLCDSAERIFASEPTVLQLKAPIKIFGDLHGQFGDLMRLFDEYGSPSTAGDISYIDYLFLGDYVDRGQHSLETISLLLALKVEYQHNVHLIRGNHEAADINALFGFRIECIERMGERDGIWVWHRINRLFNWLPLAASIEKKIICMHGGIGRSINHVEQIENIQRPITMEAGSIVLMDLLWSDPTENDSVEGLRPNARGPGLVTFGPDRVMEFCNNNDLQLIVRAHECVMDGFERFAQGHLITLFSATNYCGTANNAGAILVLGRDLVVVPKLIHPLPPALSSPETSPERHIEDTWMQELNANRPATPTRGRPQNSNDRGGSLAWM
B5: DMR1, HSK, homoserine kinase (protein, UniProt Q8L7R2 35-370, looked up)
Homoserine kinase: CRASVQTLVAVEPEPVFVSVKTFAPATVANLGPGFDFLGCAVDGLGDHVTLRVDPSVRAGEVSISEITGTTTKLSTNPLRNCAGIAAIATMKMLGIRSVGLSLDLHKGLPLGSGLGSSAASAAAAAVAVNEIFGRKLGSDQLVLAGLESEAKVSGYHADNIAPAIMGGFVLIRNYEPLDLKPLRFPSDKDLFFVLVSPDFEAPTKKMRAALPTEIPMVHHVWNSSQAAALVAAVLEGDAVMLGKALSSDKIVEPTRAPLIPGMEAVKKAALEAGAFGCTISGAGPTAVAVIDSEEKGQVIGEKMVEAFWKVGHLKSVASVKKLDNVGARLVNSVSR
B6: TAT3, tyrosine aminotransferase 3 (protein, UniProt Q9SK47 1-445, looked up)
Probable aminotransferase TAT3: MASNGVTNCNANANVWRFKGNGATSDAAAVTLRKLAFGMFKNCTMNSGKTILFPTPGEPSAHSNFRTCPEAEEAVAAAARSGMANSYAPSPGVFKARRAVAEYLNGELPTKLKAEDVYITGGCNQAIEIVIDSLAGNPSANILLPRPGYPHYDARAVYSGLEIRKYDLLPESDWEINLDGLEAAADENTVAMVIINPNNPCGNVYTYDHLNKVAEMARKLGIMIISDEVYDHVVYGDKPFIPMGKFASIAPVITLGSISKGWVNPGWRVGWIAMNDPNGIFVSTGVVQAIEDFLDLTPQPSFILQEALPDILEKTPKEFFEKKIKAMRRNVELSCERLKDIPCLFCPKKPESCSYLWLKLDTSMLNNIKNDFDFCTKLVSEESLILIPGVALGAENWVRISIGTDESVVQEIFDRLKGFYDRHAISKEAIKLSGHAINQIVVSVN
B7: ATMEK4, ATMKK4, MKK4, mitogen-activated protein kinase kinase 4 (protein, UniProt O80397 1-366, looked up)
Mitogen-activated protein kinase kinase 4: MRPIQSPPGVSVPVKSRPRRRPDLTLPLPQRDVSLAVPLPLPPTSGGSGGSSGSAPSSGGSASSTNTNSSIEAKNYSDLVRGNRIGSGAGGTVYKVIHRPSSRLYALKVIYGNHEETVRRQICREIEILRDVNHPNVVKCHEMFDQNGEIQVLLEFMDKGSLEGAHVWKEQQLADLSRQILSGLAYLHSRHIVHRDIKPSNLLINSAKNVKIADFGVSRILAQTMDPCNSSVGTIAYMSPERINTDLNQGKYDGYAGDIWSLGVSILEFYLGRFPFPVSRQGDWASLMCAICMSQPPEAPATASPEFRHFISCCLQREPGKRRSAMQLLQHPFILRASPSQNRSPQNLHQLLPPPRPLSSSSSPTT
B8: NIMIN1 (protein, UniProt Q9FNZ5 1-142, looked up)
Protein NIM1-INTERACTING 1: MYPKQFSLYNYSLETMSKDENVESKETIRVDKRVREDEEEEEEKKIDTFFKLIKHYQEARKRRREELAENSGVVRRKSNGGERSGIVVPAFQPEDFSQCRTGLKPPLMFVSDHKEENTKVEQEEDQTEERNEDKALDLNLAL
B9: MEK1 (protein, UniProt Q94A06 1-354, looked up)
Mitogen-activated protein kinase kinase 1: MNRGSLCPNPICLPPLEQSISKFLTQSGTFKDGDLRVNKDGIQTVSLSEPGAPPPIEPLDNQLSLADLEVIKVIGKGSSGNVQLVKHKLTQQFFALKVIQLNTEESTCRAISQELRINLSSQCPYLVSCYQSFYHNGLVSIILEFMDGGSLADLLKKVGKVPENMLSAICKRVLRGLCYIHHERRIIHRDLKPSNLLINHRGEVKITDFGVSKILTSTSSLANSFVGTYPYMSPERISGSLYSNKSDIWSLGLVLLECATGKFPYTPPEHKKGWSSVYELVDAIVENPPPCAPSNLFSPEFCSFISQCVQKDPRDRKSAKELLEHKFVKMFEDSDTNLSAYFTDAGSLIPPLAN
B10: PNG1, peptide-N-glycanase 1 (protein, UniProt Q9FGY9 1-721, looked up)
Peptide-N(4)-(N-acetyl-beta-glucosaminyl)asparagine amidase: MVARKFVVRHEDSSFDVDYNTEDGLEVLRFLIFSLTLVPPEEQKIVAEDDNRLVSDESDLASLSERLRLVSVGEDSVENSDAEMLKSDEELARMLQAEEDAIMFQQFVAARDNGEFEGRIRPYVSQVLMYEDPVRQDAARKTVPKDELEEKALVSLAKEGNFEPSKEERDYAFLLQLLFWFKKSFRWVNEPPCDFCGNKTIGQGMGNPLTSELAYGANRVEIYRCTMCPTTTRFPRYNDPLKLVETKKGRCGEWANCFTLYCRTFGYDSRLIMDFTDHVWTECYSHSLKRWIHLDPCEGVYDKPMLYEKGWNKKLNYVIAISKDGVCDVTKRYTKKWHEVLSRRTLTTESSLQDGLRTLTRERRRSLMFESLSKLELRDRNEQEELERNLHSADNASVSLPGRQSGDREWRIMRSEFGSDENSSVSSSSCPVRKCVDDHVTNIYDSFLPILTQFVEDGLPVARTNEVLKMIKQVLVDLKNAPYKTRKARLTLDSDNSSSFPEQFLPALGDLLLALSLKSERDTNGKSVTISVDGKLTKTAIALPVALDALRELVADLSKYQNLNKDSLSFPLVKQNRVCSGSVLASGEELPSGIATAAFDGIQESKWEEPNGAKGCWIVYKTLYNQMHQLIAYELMSANDAPERDPKDWILEGSNDGGSTWCVLDKQTSQVFEERFQRKSYKITTPGFQANLFRFRFLSVRDVNSTSRLQLGSIDLYRSHQ

Biological target: sim3-GFP (Arabidopsis thaliana) (UniProt P93002)
Assay: sim3-GFP IP, LC-MS/MS

Chain of sim3-GFP (Arabidopsis thaliana) (P93002 other isoform, or with tags, fused parts or gaps): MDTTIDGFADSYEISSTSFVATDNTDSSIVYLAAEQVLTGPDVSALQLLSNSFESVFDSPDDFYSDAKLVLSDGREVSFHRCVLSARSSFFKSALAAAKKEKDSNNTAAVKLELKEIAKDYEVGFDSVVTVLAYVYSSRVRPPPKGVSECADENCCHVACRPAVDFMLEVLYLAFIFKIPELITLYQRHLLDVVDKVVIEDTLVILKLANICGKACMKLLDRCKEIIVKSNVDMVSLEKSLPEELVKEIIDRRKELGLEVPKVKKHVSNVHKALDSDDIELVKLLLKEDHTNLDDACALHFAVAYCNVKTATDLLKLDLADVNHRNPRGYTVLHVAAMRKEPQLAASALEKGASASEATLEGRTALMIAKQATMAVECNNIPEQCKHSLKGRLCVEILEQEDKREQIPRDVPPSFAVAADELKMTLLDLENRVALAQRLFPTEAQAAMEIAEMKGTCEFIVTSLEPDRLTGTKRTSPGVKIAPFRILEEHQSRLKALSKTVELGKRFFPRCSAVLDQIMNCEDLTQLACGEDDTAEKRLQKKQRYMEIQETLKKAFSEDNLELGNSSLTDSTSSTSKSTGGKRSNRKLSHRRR

Binder | Normalized Fold Change: SA vs Mock
B1 | 6.22 fold
B2 | 4.63 fold
B3 | 9.34 fold
B4 | 2.07 fold
B5 | 2.16 fold
B6 | 18.5 fold
B7 | 2.62 fold
B8 | 17.7 fold
B9 | 4.03 fold
B10 | 3.13 fold
